Measured values: US20230139053A1

Assays:
[1] = target: anti-A2M antibody (MAB) labeled with a donor fluorophore; experiment: competitive TR-FRET, competitor acceptor-labeled isolated A2M; unlabeled A2M 500 ug/mL, mean of 4 replicates (FIG. 2G)
[2] = target: anti-A2M antibody (MAB) labeled with a donor fluorophore; experiment: competitive TR-FRET, competitor acceptor-labeled isolated A2M; unlabeled A2M 2000 ug/mL, mean of 4 replicates (FIG. 2G)
[3] = target: anti-A2M antibody (MAB) labeled with a donor fluorophore; experiment: competitive TR-FRET, competitor acceptor-labeled isolated A2M, whole blood; A2M 2000 ug/mL, multiplex cals, 30 min (FIG. 2I)
[4] = target: anti-A2M antibody (MAB) labeled with a donor fluorophore; experiment: competitive TR-FRET, competitor acceptor-labeled isolated A2M, whole blood; A2M 200 ug/mL, singleplex cals, 5 min (FIG. 2I)
[5] = target: anti-A2M antibody (MAB) labeled with a donor fluorophore; experiment: competitive TR-FRET, competitor acceptor-labeled isolated A2M, whole blood; A2M 1000 ug/mL, multiplex cals, 5 min (FIG. 2I)
[6] = target: anti-A2M antibody (MAB) labeled with a donor fluorophore; experiment: competitive TR-FRET, competitor acceptor-labeled isolated A2M, whole blood; A2M 0 ug/mL, singleplex cals, 30 min (FIG. 2I)
[7] = target: anti-A2M antibody (MAB) labeled with a donor fluorophore; experiment: competitive TR-FRET, competitor acceptor-labeled isolated A2M, whole blood; A2M 2000 ug/mL, singleplex cals, 5 min (FIG. 2I)
[8] = target: anti-A2M antibody (MAB) labeled with a donor fluorophore; experiment: competitive TR-FRET, competitor acceptor-labeled isolated A2M, whole blood; A2M 1000 ug/mL, singleplex cals, 5 min (FIG. 2I)
[9] = target: anti-A2M antibody (MAB) labeled with a donor fluorophore; experiment: competitive TR-FRET, competitor acceptor-labeled isolated A2M; unlabeled A2M 0 ug/mL, mean of 4 replicates (FIG. 2G)
[10] = target: anti-A2M antibody (MAB) labeled with a donor fluorophore; experiment: competitive TR-FRET, competitor acceptor-labeled isolated A2M, whole blood; A2M 0 ug/mL, singleplex cals, 5 min (FIG. 2I)
[11] = target: anti-A2M antibody (MAB) labeled with a donor fluorophore; experiment: competitive TR-FRET, competitor acceptor-labeled isolated A2M, whole blood; A2M 4000 ug/mL, singleplex cals, 30 min (FIG. 2I)
[12] = target: anti-A2M antibody (MAB) labeled with a donor fluorophore; experiment: competitive TR-FRET, competitor acceptor-labeled isolated A2M; unlabeled A2M 200 ug/mL, mean of 4 replicates (FIG. 2G)
[13] = target: anti-A2M antibody (MAB) labeled with a donor fluorophore; experiment: competitive TR-FRET, competitor acceptor-labeled isolated A2M, whole blood; A2M 200 ug/mL, multiplex cals, 30 min (FIG. 2I)
[14] = target: anti-A2M antibody (MAB) labeled with a donor fluorophore; experiment: competitive TR-FRET, competitor acceptor-labeled isolated A2M; unlabeled A2M 1000 ug/mL, mean of 4 replicates (FIG. 2G)
[15] = target: anti-A2M antibody (MAB) labeled with a donor fluorophore; experiment: competitive TR-FRET, competitor acceptor-labeled isolated A2M, whole blood; A2M 500 ug/mL, multiplex cals, 5 min (FIG. 2I)
[16] = target: anti-A2M antibody (MAB) labeled with a donor fluorophore; experiment: competitive TR-FRET, competitor acceptor-labeled isolated A2M, whole blood; A2M 200 ug/mL, singleplex cals, 30 min (FIG. 2I)
[17] = target: anti-A2M antibody (MAB) labeled with a donor fluorophore; experiment: competitive TR-FRET, competitor acceptor-labeled isolated A2M, whole blood; A2M 4000 ug/mL, multiplex cals, 5 min (FIG. 2I)
[18] = target: anti-A2M antibody (MAB) labeled with a donor fluorophore; experiment: competitive TR-FRET, competitor acceptor-labeled isolated A2M, whole blood; A2M 4000 ug/mL, multiplex cals, 30 min (FIG. 2I)
[19] = target: anti-A2M antibody (MAB) labeled with a donor fluorophore; experiment: competitive TR-FRET, competitor acceptor-labeled isolated A2M; unlabeled A2M 4000 ug/mL, mean of 4 replicates (FIG. 2G)
[20] = target: anti-A2M antibody (MAB) labeled with a donor fluorophore; experiment: competitive TR-FRET, competitor acceptor-labeled isolated A2M, whole blood; A2M 1000 ug/mL, multiplex cals, 30 min (FIG. 2I)
[21] = target: anti-A2M antibody (MAB) labeled with a donor fluorophore; experiment: competitive TR-FRET, competitor acceptor-labeled isolated A2M, whole blood; A2M 500 ug/mL, singleplex cals, 30 min (FIG. 2I)
[22] = target: anti-A2M antibody (MAB) labeled with a donor fluorophore; experiment: competitive TR-FRET, competitor acceptor-labeled isolated A2M, whole blood; A2M 0 ug/mL, multiplex cals, 5 min (FIG. 2I)
[23] = target: anti-A2M antibody (MAB) labeled with a donor fluorophore; experiment: competitive TR-FRET, competitor acceptor-labeled isolated A2M, whole blood; A2M 500 ug/mL, multiplex cals, 30 min (FIG. 2I)
[24] = target: anti-A2M antibody (MAB) labeled with a donor fluorophore; experiment: competitive TR-FRET, competitor acceptor-labeled isolated A2M, whole blood; A2M 4000 ug/mL, singleplex cals, 5 min (FIG. 2I)
[25] = target: anti-A2M antibody (MAB) labeled with a donor fluorophore; experiment: competitive TR-FRET, competitor acceptor-labeled isolated A2M, whole blood; A2M 2000 ug/mL, singleplex cals, 30 min (FIG. 2I)
[26] = target: anti-A2M antibody (MAB) labeled with a donor fluorophore; experiment: competitive TR-FRET, competitor acceptor-labeled isolated A2M, whole blood; A2M 0 ug/mL, multiplex cals, 30 min (FIG. 2I)
[27] = target: anti-A2M antibody (MAB) labeled with a donor fluorophore; experiment: competitive TR-FRET, competitor acceptor-labeled isolated A2M, whole blood; A2M 200 ug/mL, multiplex cals, 5 min (FIG. 2I)
[28] = target: anti-A2M antibody (MAB) labeled with a donor fluorophore; experiment: competitive TR-FRET, competitor acceptor-labeled isolated A2M, whole blood; A2M 2000 ug/mL, multiplex cals, 5 min (FIG. 2I)
[29] = target: anti-A2M antibody (MAB) labeled with a donor fluorophore; experiment: competitive TR-FRET, competitor acceptor-labeled isolated A2M, whole blood; A2M 1000 ug/mL, singleplex cals, 30 min (FIG. 2I)
[30] = target: anti-A2M antibody (MAB) labeled with a donor fluorophore; experiment: competitive TR-FRET, competitor acceptor-labeled isolated A2M, whole blood; A2M 500 ug/mL, singleplex cals, 5 min (FIG. 2I)

- F/B Mean [1]: 0.795
- F/B Mean [2]: 0.532
- F/B [3]: 0.45
- F/B [4]: 0.88
- F/B [5]: 0.58
- F/B [6]: 1
- F/B [7]: 0.43
- F/B [8]: 0.58
- F/B Mean [9]: 1
- F/B [10]: 1
- F/B [11]: 0.33
- F/B Mean [12]: 0.905
- F/B [13]: 0.87
- F/B Mean [14]: 0.666
- F/B [15]: 0.71
- F/B [16]: 0.88
- F/B [17]: 0.34
- F/B [18]: 0.33
- F/B Mean [19]: 0.393
- F/B [20]: 0.56
- F/B [21]: 0.71
- F/B [22]: 1
- F/B [23]: 0.74
- F/B [24]: 0.33
- F/B [25]: 0.43
- F/B [26]: 1
- F/B [27]: 0.83
- F/B [28]: 0.45
- F/B [29]: 0.59
- F/B [30]: 0.72
B1: A2M (alpha-2-macroglobulin), unlabeled calibrator / analyte (protein)
chain: SVSGKPQYMVLVPSLLHTETTEKGCVLLSYLNETVTVSASLESVRGNRSLFTDLEAENDVLHCVAFAVPKSSSNEEVMFLTVQVKGPTQEFKKRTTVMVKNEDSLVFVQTDKSIYKPGQTVKFRVVSMDENFHPLNELIPLVYIQDPKGNRIAQWQSFQLEGGLKQFSFPLSSEPFQGSYKVVVQKKSGGRTEHPFTVEEFVLPKFEVQVTVPKIITILEEEMNVSVCGLYTYGKPVPGHVTVSICRKYSDASDCHGEDSQAFCEKFSGQLNSHGCFYQQVKTKVFQLKRKEYEMKLHTEAQIQEEGTVVELTGRQSSEITRTITKLSFVKVDSHFRQGIPFFGQVRLVDGKGVPIPNKVIFIRGNEANYYSNATTDEHGLVQFSINTTNVMGTSLTVRVNYKDRSPCYGYQWVSEEHEEAHHTAYLVFSPSKSFVHLEPMSHELPCGHTQTVQAHYILNGGTLLGLKKLSFYYLIMAKGGIVRTGTHGLLVKQEDMKGHFSISIPVKSDIAPVARLLIYAVLPTGDVIGDSAKYDVENCLANKVDLSFSPSQSLPASHAHLRVTAAPQSVCALRAVDQSVLLMKPDAELSASSVYNLLPEKDLTGFPGPLNDQDNEDCINRHNVYINGITYTPVSSTNEKDMYSFLEDMGLKAFTNSKIRKPKMCPQLQQYEMHGPEGLRVGFYESDVMGRGHARLVHVEEPHTETVRKYFPETWIWDLVVVNSAGVAEVGVTVPDTITEWKAGAFCLSEDAGLGISSTASLRAFQPFFVELTMPYSVIRGEAFTLKATVLNYLPKCIRVSVQLEASPAFLAVPVEKEQAPHCICANGRQTVSWAVTPKSLGNVNFTVSAEALESQELCGTEVPSVPEHGRKDTVIKPLLVEPEGLEKETTFNSLLCPSGGEVSEELSLKLPPNVVEESARASVSVLGDILGSAMQNTQNLLQMPYGCGEQNMVLFAPNIYVLDYLNETQQLTPEIKSKAIGYLNTGYQRQLNYKHYDGSYSTFGERYGRNQGNTWLTAFVLKTFAQARAYIFIDEAHITQALIWLSQRQKDNGCFRSSGSLLNNAIKGGVEDEVTLSAYITIALLEIPLTVTHPVVRNALFCLESAWKTAQEGDHGSHVYTKALLAYAFALAGNQDKRKEVLKSLNEEAVKKDNSVHWERPQKPKAPVGHFYEPQAPSAEVEMTSYVLLAYLTAQPAPTSEDLTSATNIVKWITKQQNAQGGFSSTQDTVVALHALSKYGAATFTRTGKAAQVTIQSSGTFSSKFQVDNNNRLLLQQVSLPELPGEYSMKVTGEGCVYLQTSLKYNILPEKEEFPFALGVQTLPQTCDEPKAHTSFQISLSVSYTGSRSASNMAIVDVKMVSGFIPLKPTVKMLERSNHVSRTEVSSNHVLIYLDKVSNQTLSLFFTVLQDVPVRDLKPAIVKVYDYYETDEFAIAEYNAPCSKDLGNA
